Series [1] concerns the target C1221 DNA target. As to the kind of experiment: In vitro binding assay, fluorescence anisotropy of fluorescein-labeled C1221 duplex. The settings on record: read-out: [I-CreI]50, apparent dissociation constant. How it is done:
FIG. 1: Spectrofluorimetric titration of fluorescein-labeled C1221 by I-CreI. 50 nM C1221, containing either 0 or 4 methylated CG on both strands, was incubated with increasing concentrations of I-CreI (from 0 to 1.5 μM) in binding buffer (10 mM Tris-HCl, 150 mM NaCl, 10 mM CaCl2, 10 mM DTT, pH8) at 25° C. After 30 minutes incubation, the fluorescence anisotropy of the mixture was recorded and then plotted as a function of I-CreI concentration.
Fluorescein labeled C1221 oligonucleotides were synthesized and HPLC-purified by Eurogentec. […] C1221 duplex and fluorescein final concentrations were assessed by spectrophotometry using their respective extinction coefficients ε260nm=62900 M^−1 cm^−1 and ε495nm=83000 M^−1 cm^−1. […]
To investigate the binding of I-CreI to C1221 duplex, 50 nM of C1221 duplex was incubated with increasing concentrations of I-CreI (from 0 to 1.5 μM) in binding buffer (10 mM Tris-HCl, 150 mM NaCl, 10 mM CaCl2, 10 mM DTT, pH8) at 25° C. After 30 minutes incubation, the fluorescence anisotropy of the mixture was recorded with a Pherastar Plus (BMG Labtech) operating in fluorescence polarization end point mode with excitation and emission wavelengths set to 495 and 520 nm respectively. […] [I-CreI]50 is defined as the concentration of 1-CreI needed to reach 50% of the final fluorescence anisotropy.

The test system of series [2] is C1234 DNA target. As to the kind of experiment: In vitro single turn over cleavage assay with C1234 duplexes. It is filed as biochemical. The method, then: FIG. 5: In vitro cleavage of unmethylated or methylated C1234 by I-Cre I wild type. A constant amount of C 1234 duplex (50 nM) was incubated with an excess of I-Cre I (1.5 μM, final concentration) in the reaction buffer (10 mM Tris-HCl, 150 mM NaCl, pH8) at 37° C. Cleavage reaction was triggered by the addition of MgCl2 and then stopped after different time lengths by the addition of the stop buffer. This was followed by one hour of incubation at 37° C. to digest I-Cre I and release free DNA molecules. Cleaved and uncleaved DNA products were separated by PAGE using a TGX Any kD precast gel (Bio-Rad), stained with SYBR Green and then quantified using Quantity One software (Bio-Rad). Disappearance of substrate (uncleaved DNA) is plotted as a function of time.
To investigate the influence of C1234 methylation on the nuclease activity of I-Cre I, in vitro single turn over cleavage assays were performed with either unmethylated or methylated C1234 duplexes (unmethylated C1234 composed of SEQ ID NO: 31+SEQ ID NO: 32, C1234_Me full composed of SEQ ID NO: 35+SEQ ID NO: 38, C1234_Me-6a/-5b composed of SEQ ID NO: 33+SEQ ID NO: 36, C1234_Me-3a/-2b composed of SEQ ID NO: 34+SEQ ID NO: 37, C1234_Me-3a composed of SEQ ID NO: 34+SEQ ID NO: 32, C1234_Me-2b composed of SEQ ID NO: 31+SEQ ID NO: 37, respectively). A constant amount of C1234 duplex (50 nM) was incubated with an excess of I-Cre I (1.5 μM, final concentration) in the reaction buffer (10 mM Tris-HCl, 150 mM NaCl, pH8) at 37° C. Cleavage reaction was triggered by the addition of MgCl2 and then stopped after different time lengths by the addition of the stop buffer (45% glycerol, 95 mM EDTA, 1.5% (w/v) SDS, 1.5 mg/mL proteinase K and 0.048% (w/v) bromophenol blue, final concentrations). This was followed by one hour incubation at 37° C. to digest I-Cre I and release free DNA molecules. Cleaved and uncleaved DNA products were separated by PAGE using a TGX Any kD precast gel (Bio-Rad), stained with SYBR Green and then quantified using Quantity One software (Bio-Rad).
To test the influence of C 1234 methylation on I-Cre I cleavage activity, single turn over cleavage assays in vitro were performed with unmethylated (composed of SEQ ID NO: 31+SEQ ID NO: 32) or with different methylated forms of C1234 (FIG. 5). In these assays C1234 was premixed to a large excess of recombinant meganucleases before addition of MgCl2. After different time lengths, the reaction was quenched by addition of a stop buffer, the remaining substrate was separated from the reaction product and then quantified. In these conditions, substrate disappearance was a first order process. The rate constant of this process corresponded to the turn over number (kcat) of the meganuclease. Turn over number measurement was not affected by affinity differences between methylated and unmethylated C1234 for I-Cre I because in our experimental conditions, the totality of C1234 was bound to the meganuclease at the beginning of reaction. In addition, this measurement was not affected by the rate limiting step of product release (Wang J, Kim H H, Yuan X, Herrin D L: Purification, biochemical characterization and protein-DNA interactions of the I-CreI endonuclease produced in Escherichia coli. Nucleic Acids Res 1997, 25:3767-3776) because the complex I-Cre I:cleaved C1234 product was artificially disrupted by the proteinase K and SDS present in the stop buffer.

The record followed here is US20130196320A1, “METHOD FOR IMPROVING CLEAVAGE OF DNA BY ENDONUCLEASE SENSITIVE TO METHYLATION” (CELLECTIS, priority 2010, published 2013).

Values joined by “and” are separate entries in the source; they are usually repeats but may differ in a detail not shown here. Equal values may be shown once. Read-outs that look alike come from different tables or passages of the source. Some results are limits rather than exact numbers.

B1: I-CreI: wild-type I-CreI meganuclease (… homing endonuclease), SEQ ID NO: 1, recombinant Cterm His-tag (protein, listed as Chlamydomonas reinhardtii)
chain: MNTKYNKEFLLYLAGFVDGDGSIIAQIKPNQSYKFKHQLSLTFQVTQKTQRRWFLDKLVDEIGVGYVRDRGSVSDYILSEIKPLHNFLTQLQPFLKLKQKQANLVLKIIEQLPSAKESPDKFLEVCTWVDQIAALNDSKTRKTTSETVRAVLDSLSEKKKSSP
modifications: C-terminal His-tag
Take B1: the Kd in series [1] (fully methylated C1221 (4 methylated CG on both strands)) was roughly 1000 nM; in series [1] (unmethylated C1221), 30 nM. Moreover, the kcat in series [2] (C1234_Me full (fully methylated)) is less than 1.7e-06 s⁻¹; in series [2] (C1234_Me-2b) it was less than 1.7e-06 s⁻¹; in series [2] (C1234_Me-3a) it was 0.00095 ± 0.0001 s⁻¹; in series [2] (C1234_Me-3a/-2b), 3.3e-06 ± 5e-05 s⁻¹; in series [2] (C1234_Me-6a/-5b), 0.00033 ± 0.00012 s⁻¹; in series [2] (unmethylated C1234), 0.000417 s⁻¹ and 0.000417 ± 3.3e-05 s⁻¹. Also, the “effect of methylation on catalytic activity” value is reported as “almost totally inhibited it” in series [2] (C1234 methylated in position −2b); “didn't affect 1-Cre I catalytic activity” in series [2] (C1234 methylated in position −3a); “strongly affected the catalytic activity of I-Cre I” in series [2] (C1234 methylated in positions −3a and −2b (within the cleavage region)); “did not affect I-Cre I catalytic activity” in series [2] (C1234 methylated in positions −6a/−5b (outside the cleavage region)).

What is called kcat is the maximal rate divided by the concentration of active sites.
